Results on 23 substances are retold here after patent US20040086528A1.

The target of assay [1] is recombinant, monomeric JR-FL gp120 (full-length) (HIV-1 JR-FL) (UniProt P20871). The experiment in a line: JR-FL gp120 (2 µg/ml) against 125I-MIP-1β on activated CD4+ T cells; antibody at 20 µg/ml.
The target of assay [2] is chemokine receptor C-C CKR-5 (human) (human) (UniProt P51681). Put plainly: 125I-MIP-1β (0.1 nM) competition on activated CD4+ T cells; gp120 at 0.2 µg/ml.
Assay [3] has the same target. The experiment in a line: 125I-MIP-1β (0.1 nM) competition on activated CD4+ T cells; gp120 at 0.1 µg/ml.
Assay [4] has as its target HIV-1 JR-FL envelope glycoproteins (membrane-bound gp120/gp41) (HIV-1 JR-FL). Put plainly: cell-based or functional assay.
The target of assay [5] is chemokine receptor C-C CKR-5 (human) (human) (UniProt P51681). Put plainly: 125I-MIP-1β (0.1 nM) competition on activated CD4+ T cells; gp120 at .05 µg/ml [sic].
The target is the same in assay [6]. Put plainly: 125I-MIP-1β (0.1 nM) competition on activated CD4+ T cells; gp120 at 20 µg/ml.
The target in assay [7] is wild-type CCR5, HA-tagged at the C-terminus (human) (UniProt P51681). The experiment in a line: cell-based or functional assay.
The target in assay [8] is CCR5 H175A, HA-tagged (human) (UniProt P51681). The experiment in a line: cell-based or functional assay.
Assay [9] addresses CCR5 H181A, HA-tagged (human) (UniProt P51681). Put plainly: cell-based or functional assay.
In assay [10] the target is CCR5 Y184A, HA-tagged (human) (UniProt P51681). The experiment in a line: cell-based or functional assay.
For assay [11], the target named is CCR5 D95A, HA-tagged (human) (UniProt P51681). The experiment in a line: cell-based or functional assay.
For assay [12], the target named is CCR5 K191A/N192A, HA-tagged (human) (UniProt P51681). Put plainly: cell-based or functional assay.
Assay [13] has as its target CCR5 Q93A, HA-tagged (human) (UniProt P51681). Put plainly: cell-based or functional assay.
Assay [14] addresses CCR5 Q188A, HA-tagged (human) (UniProt P51681). The experiment in a line: cell-based or functional assay.
Assay [15] addresses CCR5 R31A, HA-tagged (human) (UniProt P51681). Put plainly: cell-based or functional assay.
Assay [16] deals with chemokine receptor C-C CKR-5 (human) (human) (UniProt P51681). Put plainly: cell-based or functional assay.
The target of assay [17] is CCR5 K171A/E172A, HA-tagged (human) (UniProt P51681). Put plainly: cell-based or functional assay.
Assay [18] has as its target CCR5 N13A, HA-tagged (human) (UniProt P51681). Put plainly: cell-based or functional assay.
The target in assay [19] is CCR5 E18A, HA-tagged (human) (UniProt P51681). The experiment in a line: cell-based or functional assay.
Assay [20] deals with CCR5 K26A, HA-tagged (human) (UniProt P51681). The experiment in a line: cell-based or functional assay.
Assay [21] concerns the target CCR5 R274A/D276A, HA-tagged (human) (UniProt P51681). The experiment in a line: cell-based or functional assay.
Assay [22] has as its target CCR5 Q102A, HA-tagged (human) (UniProt P51681). The experiment in a line: cell-based or functional assay.
The target of assay [23] is CCR5 K22A, HA-tagged (human) (UniProt P51681). The experiment in a line: cell-based or functional assay.
The target in assay [24] is CCR5 D2A, HA-tagged (human) (UniProt P51681). The experiment in a line: cell-based or functional assay.
The target in assay [25] is CCR5 D11A, HA-tagged (human) (UniProt P51681). The experiment in a line: cell-based or functional assay.
Assay [26] deals with CCR5 E262A, HA-tagged (human) (UniProt P51681). The experiment in a line: cell-based or functional assay.
For assay [27], the target named is chemokine receptor C-C CKR-5 (human) (human) (UniProt P51681). Put plainly: 125I-MIP-1β competition, CD4- CCR-5+ 293 cells against activated CD4+ T cells.
The target is the same in assay [28]. The experiment in a line: 125I-MIP-1β (0.1 nM) competition on activated CD4+ T cells; gp120 at 5 µg/ml.
For assay [29] the target is unchanged. Put plainly: 125I-MIP-1β (0.1 nM) competition on activated CD4+ T cells; gp120 at 50 µg/ml.
Assay [30] has the same target. The experiment in a line: 125I-MIP-1β competition on CD4- CCR-5+ 293 cells; gp120 at 50 µg/ml; strongest competition observed.
Assay [31] deals with wild-type CCR5, HA-tagged at the C-terminus (human) (UniProt P51681).
The target in assay [32] is CCR5 D2A/D11A/E18A, HA-tagged (human) (UniProt P51681). Put plainly: cell-based or functional assay.
Assay [33] has as its target CD4 on the cell surface (human) (human) (UniProt P01730). The experiment in a line: cell-based or functional assay.
Assay [34] concerns the target chemokine receptor C-C CKR-5 (human) (human) (UniProt P51681). The experiment in a line: 125I-MIP-1β (0.1 nM) competition on activated CD4+ T cells; gp41 at 5 µg/ml.

Several values for one entry are separate records, joined by “and”; a condition that tells them apart may be missing. Equal entries are not always repeated. Some results are limits rather than exact numbers.

For the substance monoclonal antibody 48d, in assay [1], the Inhibition (%) of the gp120 competitive effect on 125I-MIP-1β binding was determined as 54%.
Same read-out and setting: to monoclonal antibody 19b belongs 88%.
The same measure, in the same setting: to antibody D7324 belongs -13%.
Take SF170 gp120: the values for the percentage inhibition of 125I-MIP-1β binding in assay [2] and in assay [3] were 140% and 87%, respectively.
For the substance monoclonal antibody 2G12, the Inhibition (%) of the gp120 competitive effect on 125I-MIP-1β binding in [1] was 38%.
Turning to “synthetic ECL2 peptide of human CCR5 (from UniProt P51681 168-199)”, in assay [4], the inhibition of fusion between HeLa-envJR-FL cells and PM1 cells (RET), peptide at 11 µg/ml came to 15%; the inhibition of fusion between HeLa-envJR-FL cells and PM1 cells (RET), peptide at 33 µg/ml came out at 65%; the inhibition of fusion between HeLa-envJR-FL cells and PM1 cells (RET), peptide at 100 µg/ml turned out to be 97%.
In the case of monoclonal antibody 447-D, the Inhibition (%) of the gp120 competitive effect on 125I-MIP-1β binding in assay [1] worked out at 109%.
The same measure, in the same setting: for monoclonal antibody 17b the value was 79%.
Consider CM243 gp120, for which the percentage inhibition of 125I-MIP-1β binding in assay [5] is 56%; in assay [2], 40%; in assay [6], 76%; in assay [3], 17%.
As to monoclonal antibody IgG1b12, the Inhibition (%) of the gp120 competitive effect on 125I-MIP-1β binding in [1] was found to be 125%.
Regarding “MIP-1α, recombinant human (from UniProt P10147 27-92) (ligand)”, the relative % inhibition of NLluc/JR-FL entry into U87MG-CD4 cells by 2 µg/ml chemokine (wild-type = 100) in [7] came out at 100%; in assay [8], 119%; in [9], 29%; in [10], 102%; in [11], 107%; in [12], 14%. The relative % inhibition of NLluc/JR-FL entry into U87MG-CD4 cells by 2 µg/ml chemokine (wild-type = 100) is 88% in [13]; 95% in [14]; -5% in assay [15]; 21% in assay [17]; 121% in assay [18]; 100% in assay [19]. Also, the relative % inhibition of NLluc/JR-FL entry into U87MG-CD4 cells by 2 µg/ml chemokine (wild-type = 100) turned out to be 100% in [20]; 48% in assay [21]; 107% in assay [22]; 19% in [23]; 81% in assay [24]; 10% in assay [25]. In assay [26], the relative % inhibition of NLluc/JR-FL entry into U87MG-CD4 cells by 2 µg/ml chemokine (wild-type = 100) was 100%. Also, in [16], the % Fusion (RET), LW5 CD4+ cells with HeLa-JR-FL cells, chemokine at 533 ng/ml worked out at 72%. For the same substance, the % Fusion (RET), PM1 cells with HeLa-JR-FL cells, chemokine at 400 ng/ml in [16] stood at 39%. In assay [16], this substance yielded a % luciferase activity, entry of ADA env-complemented virus into PM1 cells, chemokine at 100 ng/ml of 54%. In assay [16], this substance came in with a % luciferase activity, entry of BaL env-complemented virus into PM1 cells, chemokine at 100 ng/ml of 54%.
“recombinant, monomeric JR-FL gp120 (full-length), P20871 32-503 (other; other documents disagree on this pair)”: the fold higher gp120 concentration needed on CD4- cells than on CD4+ cells in assay [27] is over 100 fold. Further, the percentage inhibition of 125I-MIP-1β binding in assay [28] is 67%; in assay [5], 58%; in assay [2], 40%; in [29], 95%; in assay [6], 91%; in [3], 44%. Also, the percent inhibition of MIP-1β binding in [30] was determined as 73%. In [31], this substance displayed an inhibition of 2D7-PE binding (%) of 70%.
Turning to “soluble, oligomeric 92RW020 gp120/gp41 complex”, the percentage inhibition of 125I-MIP-1β binding in [5] was found to be 74%; in assay [2] it was 49%; in assay [3], 21%.
Take monoclonal antibody A32: the Inhibition (%) of the gp120 competitive effect on 125I-MIP-1β binding in [1] came out at 51%.
In the case of “soluble, oligomeric JR-FL gp120/gp41 complex”, the percentage inhibition of 125I-MIP-1β binding in assay [5] came out at 84%; in assay [2], 56%; in [3], 46%.
Regarding monoclonal antibody 697-D, the Inhibition (%) of the gp120 competitive effect on 125I-MIP-1β binding in assay [1] amounted to 3%.
For the substance W61D gp120, the percentage inhibition of 125I-MIP-1β binding in [5] is 65%; in [2] it was 53%; in assay [6] it was 86%; in assay [3], 39%.
On to “HIV-1 JR-FL envelope glycoproteins (membrane-bound gp120/gp41)”, for which the co-receptor function of CCR5 (HIV-1 entry, luciferase), fold reduction in assay [32] is 50 fold; in [19] it was 15 fold and 20 fold.
With CD4 MAb OKT4a (antibody), in assay [33], the % Fusion (RET), LW5 CD4+ cells with HeLa-BRU cells, OKT4A at 3 ug/ml is 0% and the % Fusion (RET), LW5 CD4+ cells with HeLa-JR-FL cells, OKT4A at 3 ug/ml came to 0%.
As for recombinant gp41 (IIIB) ectodomain, the percentage inhibition of 125I-MIP-1β binding in [34] is 24%.
As to “recombinant, monomeric LAI gp120 (full-length) (from UniProt P03377 33-516) (other; other documents disagree on this pair)”, the percentage inhibition of 125I-MIP-1β binding is -5% in assay [28], -1% in assay [5], -6% in assay [29] and -18% in assay [6].
In the case of 92TH014 gp120 (monomeric), the percentage inhibition of 125I-MIP-1β binding in assay [5] worked out at 65%; in assay [2] it was 57%; in assay [3] it was 6%.
As to monoclonal antibody 15e, the Inhibition (%) of the gp120 competitive effect on 125I-MIP-1β binding in assay [1] came out at 65%.
